Measured values reported in publication PMC7218058 (2020).

What was measured:
[1] = target: IgG2 allotypes (anti-RhD); assay: SPR
[2] = target: IgG4 allotypes (anti-RhD); assay: SPR

B1: human FcγRIa (his tag) (receptor)
chain: QVDTTKAVITLQPPWVSVFQEETVTLHCEVLHLPGSSSTQWFLNGTATQTSTPSYRITSASVNDSGEYRCQRGLSGRSDPIQLEIHRGWLLLQVSSRVFTEGEPLALRCHAWKDKLVYNVLYYRNGKAFKFFHWNSNLTILKTNISHNGTYHCSGMGKHRYTSAGISVTVKELFPAPVLNASVTSPLLEGNLVTLSCETKLLLQRPGLQLYFSFYMGSKTLRGRNTSSEYQILTARREDSGLYWCEAATEDGNVLKRSPELELQVLGLQLPTPVWFH
Kd [1]: > 1000 nM

B2: human FcγRIIa 131His, biotinylated (receptor)
chain: QAAAPPKAVLKLEPPWINVLQEDSVTLTCQGARSPESDSIQWFHNGNLIPTHTQPSYRFKANNNDSGEYTCQTGQTSLSDPVHLTVLSEWLVLQTPHLEFQEGETIMLRCHSWKDKPLVKVTFFQNGKSQKFSHLDPTFSIPQANHSHSGDYHCTGNIGYTLFSSKPVTITVQVPSMGSSSPMG
modifications: biotin
Kd [2]: > 1000 nM
